Assay results: the supplement of paper PMC12636428

Tested on: Saccharomyces cerevisiae
Experiment: transcriptional activation domain activity (GFP:mCherry ratio, weighted mean of sorted bins, harmonized to initial dataset scale) (arbitrary fluorescence ratio units); higher = stronger transcriptional activation
Conditions: beta-estradiol 1 µM; induction time 4 h
Summary of the method: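 After a 1:5 dilution into SC with 1 uM beta-estradiol and 4 hours at 30 °C, yeast diploids carrying a GFP reporter and URA3-integrated barcoded tiles were sorted into 8 bins by GFP:mCherry ratio. The tiles were fused to an estradiol-inducible synthetic transcription factor. Barcodes were sequenced, tiles below 50 reads were discarded, and activation activity was taken as the read-weighted mean of bin median fluorescence, averaged across barcodes and linearly mapped onto the initial dataset scale.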

Sequence | transcriptional activation domain activity
MPDVWLSWLVLSFAPSPPFHHFLWFWFCLIAWFIFFRPITWTFDTLFWFLFLP | 43400
MPEETVTEPRKKRAKIMSACSECRRKKTKCNGEQPCRNCQKSSVQCVYPAATQ | 36500
MPEPAAAAAPRQRAFRTKSRLGCLQCKRRHVKCDERRPRCGRCVAAGSDCSLQ | 17400
MPEVESARPTTSSKCIVLFYLFFLPCLSPFLYFLMLTMASVPSPLGFLLLLVC | 66100
MPFFSDFLFLFLFFFLEFFFFFFLPGFRLGYSSLFSSLLFFFFGFPIPPPHLS | 46200
MPFGRRSAFGVFFIYHFFFVLHLIFTGFQSIFVYIGLSKLFFFWFGPFFFLFP | 61800
MPFNLPPRAIGVATRVLEELGLFNIYKSCIDTKILCIQRFVRLFAYGGSTLVL | 44200
MPFRNCFACIICCSWLLYLDVLLILSMYSIYFMGGFARYLFWFIYWFFGIMEL | 44800
MPFSVSASNILLSPFHLIFWSIRNFSNILIFLFSPFFLVLYYASYVFTPIFIP | 96500
MPFYMPSKGLAIKDFVGQIALIIKVYVNPITLVSISYHYYMFFLSLNCLWLFL | 65100
MPGGWVFLMSIAFYYFILLFFLLLPMIYGFLFVCLFGVGTCFVICTFGFFPFF | 62400
MPGHALVDIQNTFGCTFIGLVISILYLILNFGNVENLEYNMWAMNLQVDITGL | 56500
MPGLCIWYGVFWVVGFFSFFLLVLRVMGFLVCVFVRLVCVCFFRAFDICFFFS | 34500
MPGTCTLPYYSNLPIMLVLVLIRRSNYFFFLVSLTTGSFLTTFFSLFSVRLPL | 67000
MPGVTGHHLTSWYWLSFIFIFLFYFALLVVFIWVIFSYLFTHLIRFGHAVVVS | 29000
MPHLCVSVCLFLVLVMKRWLHVCRDIICRSLSWPEYEFSHFCSLIMRVLMLLL | 76300
MPHTHLIFESCFFIVFSPNDLLTTDYLFFLPFPFPFPFPFLFPFPFLFPFLFL | 63100
MPHYNSFNMDFSKLRNACGIVLLHWRRYRRILWLIAKNFMRLRGLVSLFDSGP | 48600
MPIGCLMRQVHWHRAEMREYQACLLIFQALLCTTGDPFAHILMYMWFGILYRF | 58800
MPIGPIIMLYPMRKHHSILPCKIQRLLEYLWSFLLIQKDWYRYEQTNKYSIMA | 40100
MPILMQFCFIMALNGICNSMHLYAAYNLRTHVLARVFWSILWLLLRSLCSAGW | 70700
MPIPLRLPFPFCFWVRMGLLDVYYHTVGGLYGYVLGGGVVICWRWWCFSFFCL | 55500
MPKLNLYKIFLSILCSVVILVVWFPNLESILLLRVLVFHLVKYIGLCLLFFLC | 56000
MPLCSLHTYKGGWLWLWWLRWWWRNNNCEALNFSFFFFFFFFLFLFRGVDGVL | 66000
MPLFCSISPSFHESVHFWFFFFFFLSLTLFPSFRLVSYFCTFFLFLNWVNRGF | 44800

Sequence | transcriptional activation domain activity
MPLLPRWRGKACKVVILAQFDHRYYIHGTLKRLTDVVAWLKAWWICVFWLGSR | 61300
MPLMIIFRFTIFIFILFQFLSFPSFGRGVFLSFIFFFIIFFSFHDQLFLILFF | 57000
MPLMIIFRFTIFYFYFVSIFFFLFLLLVGEFFFLLSFFFFLSFVFFLFTISYF | 37100
MPLPLIFVYLSGQMLSFLGSLFGVYMYFASLVLNYLGLFSSLRLRLWSFFLTA | 66200
MPLPPGISYILKRAPSLLLPGVITYFASKYVVNYCRLTLPRWILCALVLLAKP | 86300
MPLPPLSLSLLVLHSRHSQHSFSLHTYTLTFLFYFPYLLIDLDYLAFFFIFFP | 41400
MPLQLRCLYNCDVSLIVMLLLGLLLGIFPSLHIEICICSRDLLLICMGMWPVR | 45500
MPLRLRCNCILFYLLFFPLFFFNSTCDFSILLVIFFYSTFSLDFSSFLLFFFF | 55500
MPLSPPLYFIVFLYLQFQLYAYFICYFYILLSFYSSTHPVLSFYPLYYPFYLL | 61300
MPLVRRLGAGGDRGAGTVRVRVATSSHTPHHLKVVVLSKVPFLLPDIVVDRMQ | 12900
MPLWPPFWSAFSFSFSFVLSFFFFLFPFPFPFPFPFSFSLSFLFFLFFSFLFF | 31000
MPMDILVFYIPHRIKFCFFFFYLFIFFIFLPSYLIFYCTVTSAFLLFLYLYYL | 26000
MPMLLIIFPLLYFLYCIHNLFHIISHYYEVFNTFYIVILHLSFLFYLHFILFH | 69500
MPNAGIWCARWFIPLLFLPLPSASPYFLTVFIFSLIVQARPCFYCILMLTALF | 58200
MPNCLNIRFFLFFLLKFLYAPLSFLLFPYPSHAYLFFHVLLLINCLFVDVIPV | 54600
MPNDWFIYGCIFLECYISYGVYIRVWFLLMDFVLGPISHLSIYFLWIWFILLC | 66900
MPNEESKPVDQAAQEAEASKAVEELKLDEGSASKGKSSKKDKIKNAISSISSS | 26800
MPNKLVYEICFVHLTINCLCRGCLMYCALYIILIIKYHNHLLYFIFFNFMAIP | 38200
MPNLGLRREWYKGDFSVKYTQLTLIYLVMCVWFPSCLGGYMLTLQYIMLLLIM | 68600
MPPAPKSPQARRAGAPKAKGAVRAKSGCYTCRIRRKKCDEQMNPEGSCSTCVR | 37400
MPPAPKSPQPRRPGAPKSKGAVRAKSGCYTCRIRRKKCDEQMNAEGSCSTCVR | 42800
MPPCGLVSLTCLTELVLGLNITACVVILVDGNHLIYILSLFFWCWILLTLPAT | 35500
MPPFFFGLWRIFFFFFFFFCKQLWWTVEFVTYVSCFFFLLNKLVFWLFFFSVC | 58500
MPPFLFSEGAFMFRICFFPLCLWWCLFLFFSFFLLLQFLSYGFAFSCGRYILF | 65100
MPPHSEIDDIFAAKHSEPAPPPPPQKKKSKKRKRDAAAATVAPAAAPPPAAPA | 46500

Sequence | transcriptional activation domain activity
MPPKRGRPKKASTPPPAPVEDEAPAPVAAPRGRGRPRKVQPSGDPEQTTAPTP | 28500
MPPLLQLRLVHFLQLCLLLLLLLLRLHLLELLHFLLVFLLHRSILLLCQICSL | 54800
MPPNHPIRLFPLLVQILLLLSASSLLLDTYDYINLGINSSFSYYYFLHLLTFL | 44200
MPPPRKPHRKSRYGCIQCKRRHVKCDEEKPCRRCLDREEQCSLKPDVAAADIT | 17600
MPPQSRQSRMPEAPAEPRSARGRVTKRRSGNACVRCRRQKIKCSGSHPCEACS | 24800
MPPRYIRYADRAVIENLSWYYWVFNPIMIGLYGPVRTIIDIYFRYFYNCILLF | 40100
MPPTSSSVSRSSFSRGRTSSCRPRYSSSRPTSSSTSGSSRRTARSSPSASPRS | 11000
MPPVAKQKRSAADRAKGASRAKSGCYTCRIRRKKCDEERDEHDHCRTCTRLRL | 23700
MPQESKGKASAAAQRAHEKESKRARGALSCAECRRLKLKCDKSVPCSSCVRRG | 44700
MPQSLTCRSASIIATQDCFDVIIFRLRFLLDIARGTLLLFRDHGRALTPFGRP | 51100
MPQTAGQAVWHFILSLLYYQFVPFHIRRFIFSCFPLPVNIPTLFVFLNVLFFW | 51600
MPRHLYLIYILYILMTWGLYLILLQVIFIITMLMIFIYPFSIYLFKFQHIRSL | 49500
MPRKAAAATTEIPAEPRRSSRIKEQPKVEPAPKKAPAKPRGKKAKAAEAEAAP | 13000
MPRLCCSCCYTDSLYFMIIRDRFFWLLHNGIVVVSLISYIRCMMISSPLLVGH | 48400
MPRLCLWLTCIYGVMYCMEFSLLVYALHSLANEYYPASYGDNLGCVTVNLHYY | 44400
MPRPFSFFFSFLLFLLFFFSIFFIFLFLLFFFLVKGIWTTYKYVLVTCLYLVI | 32700
MPRPKRPGAPEAKTRSRKGCWPCKARKVKCGEEKPACSNCSRQGVICDYSIRL | 34600
MPSAATRPCVQCAAAASRYNCPQCRASTCSAPCSKAHKLRAHGSDAAAGPSSA | 47500
MPSAYHLGITPFGVHQWDINLRTLQRYLFFLYCCWIIWGILVLLLKVIILLQY | 39700
MPSCFCFIPEFTALSLPPLCSLFWFRLCTWLFLRMLCTRIYLFCSWFFCLTYF | 56400
MPSFFLFFLFFFLLSQCFLVLCHVCIGLVSFSSLSFFFFFPYSTFFSPLPFFL | 61700
MPSFTFAWPDRAYFYSLLVVSLLSAKFLHLFSHLTALPIFLFLLYFPTFVFLD | 71900
MPSFTLAWPDRAYFYSLLVVSLLSAKFLHLFSHLTALPIFLFLLYFPTFVFLD | 76700
MPSITLAWPDRAYFYSLLVVSLLSSKLLHVFSHLTAIPIFLFLLYFPTFLFLD | 72500
